Measured values as given in the supplement of paper PMC10567573.

B1: LCOR (parent)
chain: YKVKERLGTLKNPPKKKMKLMSG
B2: FAM189A2 (parent)
chain: NLAGFILGCQGAQFVSSVPRCDLV

Variants of: B1
Assay: protein stability index of a GFP-peptide fusion (GPS, HEK-293T) (PSI 1-6); higher = more stable
Settings: c terminus: native
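Also: lentivirally expressed fusions sorted by FACS into six bins by GFP to DsRed ratio, PSI derived from sequencing read proportions per bin multiplied by bin number.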

Protein stability index, by site and new letter:
E5: R 1.95, D 1.78, G 2.44, Q 1.22, W 3.07, I 1.75, H 2.85, T 2.22, F 2.71, K 2.21, S 2.11, N 1.25, P 2.25, C 1.74, V 2.94, A 1.75
Y1: M 1.93, P 1.72, G 1.2, N 1.9, K 1.54, D 2.03, E 2.15, L 2.59, W 2.2, V 2.05, S 2.2, F 1.23, A 2.34
G8: H 1.92, C 2.52, A 1.85, E 2.72, M 1.69, L 2.22, I 1.12, K 1.47, N 1.27
K2: V 3.04, E 1.71, N 1.45, H 1.88, L 3.05, G 1.64, Q 1.31, C 1.79, I 1.72, D 1.48, S 1.8, A 1.48, W 3.46, Y 2.37
R6: T 1.72, F 2.2, I 2.49, C 4.96, E 2.17, W 2.79, D 1.46, K 1.11, G 2.21, L 1.84, M 2.5, P 2.47, Y 2.14, S 3.27, Q 2.16
K4: H 2.52, V 1.22, Q 1.88, E 2.48, A 1.88, W 3.3, L 2.23, Y 2.3, P 1.35, R 3.6, D 1.45, N 2.97, M 1.26, S 1.93, G 2.1
V3: N 2.69, L 1.97, K 1.98, M 2.46, H 1.89, Q 3.06, P 2.27, S 1.92, D 2.36, E 2.08, F 1.62, T 1.91, C 1.6, W 3.38, Y 1.69, G 1.67, R 2.51
L7: D 2.56, A 2.49, R 1.06, S 1.55, F 1.5, N 2.53, I 2.14, C 2.75, G 3.22, E 2.04, W 1.76, Y 1.53, T 1.85, H 1.84, M 1.37, K 1.98, P 1.55, Q 1.52

Variants of: B2
Assay: as above
Settings: c terminus: a fixed tail appended

Protein stability index, by site and new letter:
L7: Q 2.1, G 1.82, M 2, R 1.63, E 1.77, C 2.6, H 1.73, S 2.02, D 2.19, P 1.43, N 2.75
S16: C 2.58, W 3.86, N 1.72, H 1.8, L 2.34, R 2.89, E 2.21, I 3.41, G 3.41, Y 4.96, T 2.23, D 1.04
C9: P 1.11, V 2.04, R 1.23, H 3.12, L 1.76, E 2.54, D 1.38, G 2.35, A 2.62, S 2.71
S17: M 1.47, K 2.33, Y 3.35, W 3.85, D 1.72, T 1.97, Q 2.31, E 2.31, I 1.39, R 2.1
F5: D 2.16, N 2.19, H 2.71, E 2.18, G 1.5, I 5.13, S 1.87, P 3.25
G8: L 2.81, F 3.47, Y 3.33, R 2.34, I 3.23, K 3.72, T 2.17, D 2.19, P 2.03, W 2.45
F14: M 2.71, N 1.72, Q 1.92, R 1.27, A 1.29, T 1.27, E 1.34, V 2.29, W 2.78
V24: S 2.12, R 2.19, I 2.26, Q 2.26, P 2.59, T 1.53, E 2.23, H 3.38, C 3.68, A 1.72
V18: D 2.55, I 3.42, T 1.68, M 3.72, R 1.78, C 2.83, F 2.54, E 1.05, G 1.61, S 2.4, P 2.8, K 1.99, N 2.59, Y 2.68
A12: F 2.91, H 1.03, W 2.15, E 3.98, R 3.12, C 2.54, K 1.89, L 2.95
A3: Q 1.03, P 1.45, H 2, N 4.16, M 3.4, F 2.77, K 2.35, R 1.72, Y 3.97
L23: F 3.42, K 1.94, I 2.33, P 2.98, G 1.28, C 3.66, D 2.45, S 1.93, W 3.69, R 1.58, N 2.75
Q10: R 2.51, T 3.84, P 4.29, L 1.53, G 2.63, M 3.99, I 2.87, C 1.49, D 3.6, H 2.76
N1: Q 1.85, H 2.03, Y 3.31, R 2.73, K 2.77, G 1.51, A 3.77, P 2.63
L2: F 2.65, C 1.31, N 1.97, I 3.93, D 3.18, H 1.7, E 2.13, Y 2.72, P 1.26, G 1.23
G11: P 3.59, D 2.76, R 5.06, Y 3.45, I 3.71, L 3.39, W 3.48
D22: G 1.75, M 2.78, I 2.13, C 2.27, E 1.18
P19: T 3.3, R 2.56, F 3.04, N 3.15, M 1.45, A 3.01, C 3.7
I6: C 2.3, T 1.66, P 1.6, W 1.76, E 1.49, K 2.29, H 1.64, F 2.78, G 1.79, V 2.18, R 1.78
G4: P 3.65, D 2.36, T 3.08, Y 4.24, M 4.18
Q13: M 2.01, D 2.27, Y 3.26, T 3.16, V 2.53, A 4.08, N 2.93, P 2.31
V15: Q 3.5, H 3.13, Y 2.46, L 3.14, K 2.19, E 1.94, D 1.55
R20: Y 1.75, M 2.91, K 2.1, H 3.48, I 2.15, F 2.19, G 3.08, E 1.96, L 1.87
C21: K 3.12, F 2.92, T 2.56, D 2.33, N 2.79, M 2.81, S 1.68, R 1.64
